The values that follow are results of earlier work, collected in publication PMC3897602 (PLoS ONE, 2014).

The conditions of this data set: in vivo, po.

For the substance “biotinylation of exendin-4: biotinylated exendin-4 reported by Jin et al”, the apparent bioavailability is 3.95%.
